Results taken from US20090062179A1 (University of Texas, published 2009).

Molecular target: T1, VP16-ERα chimera (full-length ERα fused to the Herpes simplex virus VP16 transactivation domain) (Herpes simplex virus, UniProt P03372 1-595)
T1 construct: Expressed in HeLa cells for the mammalian two-hybrid assay; also called pACT-ERα
T1 sequence: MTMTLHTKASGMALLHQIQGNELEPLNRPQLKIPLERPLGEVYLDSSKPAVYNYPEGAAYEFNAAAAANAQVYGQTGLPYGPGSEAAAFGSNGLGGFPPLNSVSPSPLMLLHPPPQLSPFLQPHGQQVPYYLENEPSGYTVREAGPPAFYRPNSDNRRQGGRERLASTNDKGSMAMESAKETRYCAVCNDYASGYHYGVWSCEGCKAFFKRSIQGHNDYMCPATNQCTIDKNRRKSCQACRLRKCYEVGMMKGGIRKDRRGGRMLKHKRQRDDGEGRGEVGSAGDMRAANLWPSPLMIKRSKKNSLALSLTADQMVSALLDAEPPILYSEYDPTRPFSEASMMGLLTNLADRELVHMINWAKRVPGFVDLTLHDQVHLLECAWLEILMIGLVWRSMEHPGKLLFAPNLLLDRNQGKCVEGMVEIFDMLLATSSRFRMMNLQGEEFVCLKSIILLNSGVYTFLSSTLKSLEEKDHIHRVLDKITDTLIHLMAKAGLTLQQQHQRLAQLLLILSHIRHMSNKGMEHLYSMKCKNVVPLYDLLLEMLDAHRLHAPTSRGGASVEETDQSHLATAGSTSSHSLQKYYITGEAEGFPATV
Test: mammalian two-hybrid (luciferase reporter) in HeLa cells, hormone-free

B1: GAL4-DBC-1-C terminal chimera (amino acids 479-923) (other, yeast;human, UniProt P04386 1-147, looked up)
chain: MKLLSSIEQACDICRLKKLKCSKEKPKCAKCLKNNWECRYSPKTKRSPLTRAHLTEVESRLERLEQLFLLIFPREDLDMILKMDSLQDIKALLTGLFVQDNVNKDAVTDRLASVETDMPLTLRQHRISATSSSEESSNKGQRQLTVSRRNAETPEATTQQETDTDLPEAPPPPLEPAVIARPGCVNLSLHGIVEDRRPKERISFEVMVLAELFLEMLQRDFGYRVYKMLLSLPEKVVSPPEPEKEEAAKEEATKEEEAIKEEVVKEPKDEAQNEGPATESEAPLKEDGLLPKPLSSGGEEEEKPRGEASEDLCEMALDPELLLLRDDGEEEFAGAKLEDSEVRSVASNQSEMEFSSLQDMPKELDPSAVLPLDCLLAFVFFDANWCGYLHRRDLERILLTLGIRLSAEQAKQLVSRVVTQNICQYRSLQYSRQEGLDGGLPEEVLFGNLDLLPPPGKSTKPGAAPTEHKALVSHNGSLINVGSLLQRAEQQDSGRLYLENKIHTLELKLEESHNRFSATEVTNKTLAAEMQELRVRLAEAEETARTAERQKSQLQRLLQELRRRLTPLQLEIQRVVEKADSWVEKEEPAPSN
notes: Expressed in HeLa cells for the mammalian two-hybrid assay
binding result: no binding
